Experimental findings from article PMC3120740, “WRKY Transcription Factors Involved in Activation of SA Biosynthesis Genes” are described below.

Sequences and labels used below:
B1: m2.8 (dsDNA)
DNA 1: ATTTCCCGGTATTTCAATTTGTCAAGGGAT
DNA 2: ATCCCTTGACAAATTGAAATACCGGGAAAT
B2: m2.2 (dsDNA)
DNA 1: ATTTCCCGGTATTTCAATTTCCCAAGATAT
DNA 2: ATATCTTGGGAAATTGAAATACCGGGAAAT
B3: ICS1 -725 (dsDNA)
DNA 1: ATTTTAGAAATGTGTCAAAATTTAAAGGAG
DNA 2: CTCCTTTAAATTTTGACACATTTCTAAAAT
B4: m2.7 (dsDNA)
DNA 1: ATTTCCCGGTATTTCACCTTGTCAAGATAT
DNA 2: ATATCTTGACAAGGTGAAATACCGGGAAAT
B5: ICS1 -278 (dsDNA)
DNA 1: CTAATAATAATAGATCAAACAATTAACTGA
DNA 2: TCAGTTAATTGTTTGATCTATTATTATTAG
B6: m2.1 (dsDNA)
DNA 1: ATTTCCCGGTATTTCAATGGGTCAAGATAT
DNA 2: ATATCTTGACCCATTGAAATACCGGGAAAT
B7: m2 (dsDNA)
DNA 1: ATTTCTGACTATTTCAATTTCCGGAGATAT
DNA 2: ATATCTCCGGAAATTGAAATAGTCAGAAAT
B8: m2.4 (dsDNA)
DNA 1: ATTTCCCGGTATTTCAATTTGTCACCATAT
DNA 2: ATATGGTGACAAATTGAAATACCGGGAAAT
B9: m1+2 (dsDNA)
DNA 1: ATTTCCCGGTATTTCAATTTCCGGAGATAT
DNA 2: ATATCTCCGGAAATTGAAATACCGGGAAAT
B10: m2.3 (dsDNA)
DNA 1: ATTTCCCGGTATTTCAATTTGTGGAGATAT
DNA 2: ATATCTCCACAAATTGAAATACCGGGAAAT
B11: m1 (dsDNA)
DNA 1: ATTTCCCGGTATTTCAATTTGTCAAGATAT
DNA 2: ATATCTTGACAAATTGAAATACCGGGAAAT
B12: ICS1 -648 (dsDNA)
DNA 1: TTGCAATTTGTAGTGACATGTAATGTTTTT
DNA 2: AAAAACATTACATGTCACTACAAATTGCAA
B13: ICS1 -844 WK-like box (dsDNA)
DNA 1: AATAGTATTGATTTTCCAAATTTAATTATA
DNA 2: TATAATTAAATTTGGAAAATCAATACTATT
B14: m2.5 (dsDNA)
DNA 1: ATTTCCCGGTATTTCAATTTGTCAGAATAT
DNA 2: ATATTCTGACAAATTGAAATACCGGGAAAT

The target in one series is T1, GST-WRKY28 (Arabidopsis thaliana, UniProt Q8VWJ2 1-318). Nature of the series: EMSA; unaltered binding; 0.5 ug protein, ~0.01 pmol probe; 3 uL 5x buffer (20% glycerol, 5 mM MgCl2, 2.5 mM EDTA, 2.5 mM DTT, 250 mM NaCl, 50 mM Tris-HCl pH 7.5, 0.25 mg/mL poly(dI-dC)) in 14 uL + 1 uL probe (final about 50 mM NaCl, 10 mM Tris, 1 mM MgCl2); room temperature, 20 min. The note with it: protein: recombinant; tags: N-terminal GST (pGEX-KG); label: 32P-dCTP end-fill (Klenow); 5'-GGG overhangs filled in with Klenow.
T1 sequence (Q8VWJ2 whole entry): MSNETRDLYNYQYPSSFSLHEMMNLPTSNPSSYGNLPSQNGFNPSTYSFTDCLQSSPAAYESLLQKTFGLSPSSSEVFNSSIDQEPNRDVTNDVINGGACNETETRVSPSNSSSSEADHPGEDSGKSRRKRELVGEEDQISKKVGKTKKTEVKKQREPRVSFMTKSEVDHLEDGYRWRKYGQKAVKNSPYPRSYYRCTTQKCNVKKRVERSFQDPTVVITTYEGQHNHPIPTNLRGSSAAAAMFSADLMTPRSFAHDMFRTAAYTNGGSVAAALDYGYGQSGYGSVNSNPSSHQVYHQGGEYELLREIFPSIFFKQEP
B1: the binding result is on record as “binds”.

The target in a further series is T1, GST-WRKY28. The experiment in a line: EMSA; 0.5 ug protein, ~0.01 pmol probe; 3 uL 5x buffer (20% glycerol, 5 mM MgCl2, 2.5 mM EDTA, 2.5 mM DTT, 250 mM NaCl, 50 mM Tris-HCl pH 7.5, 0.25 mg/mL poly(dI-dC)) in 14 uL + 1 uL probe (final about 50 mM NaCl, 10 mM Tris, 1 mM MgCl2); room temperature, 20 min. The note with it: protein: recombinant; tags: N-terminal GST (pGEX-KG); label: 32P-dCTP end-fill (Klenow); 5'-GGG overhangs filled in with Klenow.
As to B2, the binding result is reported as “no binding”.
Same read-out and setting: for B3 the value was “no binding”.
In the case of B4, the binding result is “no binding”.
With B5, the binding result was “no binding”.
Same read-out and setting: for B6 the value was “binds”.
With B7, the binding result is recorded as “binds”.
Same read-out and setting: for B8 the value was “binds”; for B9, “no binding”.
With B10, the binding result is “no binding”.
The same measure, in the same setting: for B11 the value was “binds”.
Take B12: the binding result is “no binding”.
Take B13: the binding result was “no binding”.

The target in the next series is T1, GST-WRKY28. The experiment in a line: EMSA; as strong as wild type; 0.5 ug protein, ~0.01 pmol probe; 3 uL 5x buffer (20% glycerol, 5 mM MgCl2, 2.5 mM EDTA, 2.5 mM DTT, 250 mM NaCl, 50 mM Tris-HCl pH 7.5, 0.25 mg/mL poly(dI-dC)) in 14 uL + 1 uL probe (final about 50 mM NaCl, 10 mM Tris, 1 mM MgCl2); room temperature, 20 min. The following applies: protein: recombinant; tags: N-terminal GST (pGEX-KG); label: 32P-dCTP end-fill (Klenow); 5'-GGG overhangs filled in with Klenow.
Turning to B14, the binding result was “binds”.
